Assay results as given in paper PMC8960874.

Biological target: Clone 16 (Clone 6-KiH-Clone 2) bispecific antibody (mouse | human) [IgG part: P01857]
Assay: SPR
Details: domain or fragment

SARS-CoV-2 spike receptor binding domain (RBD) protein with a C-terminal hexahistidine tag (from UniProt P0DTC2 319-541)
Kd: 2.95 nM
koff: 0.00461 s⁻¹
